The record followed here is doi:10.64898/2025.12.15.690641.

The target of the data set is T1, CsubMADS1 (Coccomyxa subellipsoidea C-169, UniProt I0YWG3 1-102).
T1 sequence: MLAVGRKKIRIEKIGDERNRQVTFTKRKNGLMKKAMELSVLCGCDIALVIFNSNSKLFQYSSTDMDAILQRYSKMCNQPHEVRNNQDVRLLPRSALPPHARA
Description: EMSA. (A gel shift assay detects complexes by their altered migration in electrophoresis.)

B1: CAB24 CArG probe (dsDNA)
DNA 1: AATTCATCGATCGTTTACAAAAAAAAGAAATATCGATCGG
DNA 2: CCGATCGATATTTCTTTTTTTTGTAAACGATCGATGAATT
Take B1: the binding result is “binds”.

B2: CAB8 CArG probe (dsDNA)
DNA 1: AATTCATCGATCGTTTACTTTTTTTAGAAATATCGATCGG
DNA 2: CCGATCGATATTTCTAAAAAAAGTAAACGATCGATGAATT
Take B2: the binding result was “binds”.
